Measurements as given in the domain aggregation screens of Martell et al. (2025).

Test: soluble fraction after stress (log2 fold change); higher = more stays soluble; pooled small domains, quantitative proteomics
Conditions: stress: 50 degC
Summary of the method: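 Pooled custom libraries of small protein domains were measured in a high-throughput format, with quantitative proteomics as the read-out. Each library was stressed at 50°C. Aggregation propensity is given as the base-two logarithm of the fold change in how much of each protein stays soluble after the stress. Higher values mean a larger share of the protein remains in solution.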

| Sequence | soluble fraction (log2) |
| --- | --- |
| HMIKLTVRQQEILDLIARSIDQTGFPPTRAEIAAELGFKSVNAAEEHLQALARKGVIEMVPGISRGIRLVQ | -0.395 |
| HMDYLYHNGKEIDQGSIMYKMEDYSDGIFELQSAKYADGTELDEKELEELESTQELIDWVMIDFVS | 0.42 |
| HMSSIFTRIIAGEIPSYKVAEDENYYAFLDINPLTKGHTLVVPKMEVDYIFDLDDKTLAGMMLFAKKG | -0.0969 |
| HMGDRRSVFEQSVLDAIKSLVKQGELATTKAISDHIGTNYQGNVSRAITALLADNKIKKLPKEGVLQPYEA | 0.0535 |
| HMLKPQQTQRIYAMAARLGVLESGNKNDMLHTIVYRLTQKESIRSLNENEYKTVVSELAERLKL | -0.97 |
| HMHSEEAALLHRYIDSLEEPQHTVVVMRDIGGYSFEEIASVVQLKEAHIWMILSRARRKLRELYIKTMDHH | 0.138 |
| HMNENNFIVAMRERLAQFIETSGTSQSRIAKELGVSKSTVSLFLGGTYGGNNQELARNLEQLLSMGAARR | -0.96 |
| HMAFIEADIGKRIKSLRNKKRITLESLAAETGFTKGYLSKVETSEKAPPVSTLGSIARALGVSISTLLGE | -0.224 |
| HMPATIEGIRLYLSSGLIKGVGEEMASRIVKAFGTDTIRVLDEEPERLLKVRGVGKKSLDRIRTSWAEH | -0.386 |
| HMIIYGLNPVKDFINLFPNKISTLFISKNKLSDSEMKSVVNINTVYVSDAELKRITGTTKHQSLAAEID | -1.21 |
| HMLMKILTDALEKMSPEELKELAEATGVKNTSSITPETMVGVFQAVFRVGGFKSYQLTLIIVNAVLKA | -0.126 |
| HMLADRANMAPAALRQIMTAIDGGNVTPKQIESATGMAHATVARALRKMLDDGLIANDGKGRYTVLT | -0.0609 |
| HMNGKPDMTPIPAGSRNNDLHAWAYGRLLNHPDNAEAIRRDLFERGQTSGLKESELETIWQSIRRQLGGD | 0.249 |
| HMAGTDLSERESEIAMLLLKGYPYKLIASRLYISESTVKSHVQNIYGKLGIHSRTELIEQFSAS | -0.558 |
| HMELNKNDLKIIKNISHIYPYFTPVKILQLILSKKFKTIDYNKILKSTSILTTDRSHLYYILNN | 0.0788 |
| HMNDADAHASVDAALKHLEALAETTPEVRAALELVRRGPDGRVTVDSFARVAEALREISIAVGAS | 0.107 |
| HMKMLSIQRREAIRALLLEKESITIAEVMEKFQISVETARRDFDALADEGFLNKVYGGATLKK | -1.37 |
| HMPNYIDAISALLTLKGVGDRKHASTMANILNLQYNSAKQKLDGKRGITLDEVKKVFQYFNEPF | -1.1 |
| HMFSPTKLKEKRESQGLSQSQLASSLGISRASYFNWESGKTKPNQNNLSKLSEILNVDPRYF | 0.355 |
| HMRGYGDRIRILRERAGITIEQLAERLGVAPYFIRRTELSEVYPTKPYIEALADVLNIDASYLARHI | -1.81 |
| HMDVDKQLDQLLAAMIPDKSLRQTIKTKAFNELVDNELADKDISSWTKQTMDVFMTRAEDMFGAM | -0.136 |
| HMDHWQSVNSALELLEVSRRTLYDYISRKKLQTKKEGKYRYVWIDDDVIEEIKTSKSAYIEINN | -2.19 |
| HMKKAIYPGSFDPLTLGHIDIIKRASGIVDELVVGVLNNSAKNSLFSLDERVSMIEEMTKDLPNVSVTSFD | 0.136 |
| HMYSIDNPPDWLKNLPKGAIRIGVEVFNQVLSKADDEDRARMAAWSAIKAKYEKADDGQWQPKAA | -0.0798 |
| HMEMPGGVMRTLSTIAYNQPVLQSKLVKVRGPRAYEDVHILRDMGLVSARSVGQTVELSTTPKFAEQF | -0.265 |

| Sequence | soluble fraction (log2) |
| --- | --- |
| HMFEKVKLTLTIPSKYSGSTYSALRNRMNKFSKEEWLSNGDLKIEIEVTGGQKTDIYTLINKLTNGEAIIE | -0.141 |
| HMEYDEVVVVKQIIPKGKNTMVAHLKHLKEHGETGFLKQAVGYLKLHASEIPFSVDAVISEVH | -0.361 |
| HMRGPDLSKDFHEYISSQWMFFGRNAYQIAEQINKDTQLMSKYGKTTPSGVHYHIKQIQQEMEN | -0.398 |
| HMNADTVIGKAGTVIEKIDNVAATGAVKIDGKVWTARSERDNITIDEGTLVKAMAIEGVKLIVEPVT | 0.198 |
| HMLDYKSALQELLQAQRRSRPRYEVISTEGPDHERVFEVAVWLDNEELGRGKGRSKREAEHQAAQAALTQL | 0.068 |
| HMSSTPEPPQAVLDLVNLREQARAGKDWTQSDAFRQQIAALGWTVKDTKDGPVVSLSPTTTE | 0.0968 |
| HMGQVSDETGLARVVDALLAAHPDEVAKYRAGKTSLLGWFMGQVMKETRGQANPDLARALVLERLE | -0.101 |
| HMSFNSQENKSVLWQFLLENNFFIGLSDKKFNKVKDIFEKNIQSISIVNDSISNKNKILIQKMMEELELL | -1.88 |
| HMDFDVELTSAGTAKVKVIKAVREATGLGLKEAKDLVDNAPSIVKEGLDEAAANDLKAALEETGASVTL | 0.117 |
| HMDEFAGSAKPLADGAAPAGYDVKGNKDSMKYHEPGGRWYDATVAEVWFKTAADAEAAGFVKAGA | 0.172 |
| HMVTVQEGETLSAIAARSGVSVKDLVRANEIRNPDSIQEGQVLFVP | 0.0612 |
| HMRKTYHVDAYQDDKWWVLQVQEMPNAISQVKSLDQADEWIREAINIVSNEPEDSFDVVIIPV | -0.612 |
| HMQTYNQLKRGMTEWIQAGQKQKAYELFAGVAGQLSLSSAAGKKQYNELVTILNRAGFGIPLE | -0.428 |
| HMKRREENLRRLALSTAERVKRKGKKEILNPMSPQERRIIHLTLQNNKEVVTHSEGEDPYRRVIISPRN | 0.00802 |
| HMSVDDEQLLKIIDDIFQQNPQAVTDAKTDSNAIHFLIGQVMKETKGHADHAISKEIIEKKLS | 0.00481 |
| HMTYTPRAGSLASQVIGFFRHNPDEELLLDDITDKFDATRGNIHTLLAEAVRFKLLARYRNDDGDYVYKPG | -2.97 |
| HMASAAHYEGVKTEGESDNDVITRVLTATGVTAEKDDIFVVKSLIADGKYSYTAYVYDGSVWAAMD | -0.0797 |
| HMKTIQVGSTVRVNQGAKTYSGGGLASFVYKRNHKVSQLQGDRAVITYEGTVVAAVHVSDLSLIH | -0.062 |
| HMDLKSLEFAIVENVQRHDLNPLEEAQGYKRLIDEFSYDQDKVSKFIGKSRSYITNSLRLLNLPLEVLEF | -0.049 |
| HMMQEIKLEVINNEELRIDNYINLAGIGLSRSYIQKLIKDGVILVNGKEVKSSYKVSLGDIISVQIPDPG | 0.299 |
| HMSQPLYWQIRRMVIDHDDANDVLQNTFIKAWSNIGSFRGDAKFSTWLYKIAVNESITFINKKKVQN | -0.469 |
| HMKVIAEESYRILVDAIEKLPPQMKSIMQLALEGKSNPEIAETLNISGETVHSQKKIAYRKLRVYLKD | -1.17 |
| HMQRDTIAISAIPTAIKTYLSSTYPTDTLVHAFVNKDQSIVVISKNIDFYATSFSTANAFIKRIQLPA | -1.03 |
| HMGQISDESVLKEMVVQLIADNPKEVASYLGGKETLLQWFMGQVARATKGKADPQAVKQLLLDEFEKLK | 0.092 |
| HMGAVDIATARQLISEIGLPIMLKAEGGGGGRGIFAIHNEAELEDAFFKASTMAQASFGNPRLFVEKF | -0.228 |
